The source of these data is patent publication US20080254027A1 (published 2008).

The test deals with T1, CD5-His-GST (human, UniProt P06127 25-372).
T1 sequence: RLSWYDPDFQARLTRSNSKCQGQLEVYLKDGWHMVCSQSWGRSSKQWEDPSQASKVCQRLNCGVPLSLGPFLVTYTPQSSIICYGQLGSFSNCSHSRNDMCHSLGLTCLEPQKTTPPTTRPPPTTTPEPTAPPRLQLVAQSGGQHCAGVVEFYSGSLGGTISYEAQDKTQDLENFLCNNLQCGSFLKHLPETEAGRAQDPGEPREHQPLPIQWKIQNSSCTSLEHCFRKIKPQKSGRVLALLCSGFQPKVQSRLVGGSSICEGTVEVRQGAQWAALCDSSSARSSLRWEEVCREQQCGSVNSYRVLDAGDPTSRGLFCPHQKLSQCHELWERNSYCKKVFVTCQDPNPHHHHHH
Kind of test: Biacore. On the technique in general: Surface plasmon resonance follows binding to a sensor surface in real time, without labels.

B1: 5D7_H0L0_IgG1_WT (antibody, V domains shown)
VH: QVTLKESGPGILKPSQTLSLTCSFSGFSLSTSGMGVGWIRQPSGKGLEWLAHIWWDDDVYYNPSLKNQLTISKDASRDQVFLKITNLDTADTATYYCVRRRATGTGFDYWGQGTTLTVSS
VL: NIVMTQSHKFMSTSVGDRVSIACKASQDVGTAVAWYQQKPGQSPKLLIYWTSTRHTGVPDRFTGSGSGTDFTLTITNVQSEDLADYFCHQYNSYNTFGSGTRLELKR
What is called Kd is the constant that tells how readily two partners part at equilibrium. A low value points to higher affinity. On to B1, for which the Kd is around 1.5 nM.
